Results as given in US20240343803A1 (SHANDONG SIMCERE BIOPHARMACEUTICAL, published 2024).

T1: cynomolgus monkey PVRIG on FlpinCHO-cyno PVRIG cells (cynomolgus monkey, UniProt A0A2K5WVV8 41-322)
T1 construct: whole, on cells; also called FlpinCHO-cynomolgus monkey PVRIG
T1 sequence: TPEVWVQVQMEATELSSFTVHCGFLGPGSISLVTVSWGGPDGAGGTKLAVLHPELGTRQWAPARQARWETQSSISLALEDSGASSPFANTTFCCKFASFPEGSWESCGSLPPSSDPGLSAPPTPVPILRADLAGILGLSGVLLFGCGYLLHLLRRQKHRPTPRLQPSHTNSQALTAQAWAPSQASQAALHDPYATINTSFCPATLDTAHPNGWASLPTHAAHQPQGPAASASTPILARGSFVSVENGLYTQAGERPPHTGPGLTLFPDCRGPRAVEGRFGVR

T2: human PVRIG-mFc protein (Acro, PVG-H5253) (human, UniProt Q6DKI7 41-171, limits assumed)
T2 construct: bought reagent; also called PVRIG-ECD-mFc
T2 sequence (looked up): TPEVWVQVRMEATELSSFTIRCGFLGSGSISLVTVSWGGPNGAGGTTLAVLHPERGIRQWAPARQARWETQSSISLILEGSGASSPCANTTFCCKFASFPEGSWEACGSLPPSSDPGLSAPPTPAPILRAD

T3: human PVRIG-his (AcroBiosystems, Cat NO. PVG-H52H4) (human, UniProt Q6DKI7 41-171, limits assumed)
T3 construct: treated as the same protein; also called human PVRIG-His protein; Human PVRIG-His, Acro C227P1-9ARF1-T4
T3 sequence (looked up): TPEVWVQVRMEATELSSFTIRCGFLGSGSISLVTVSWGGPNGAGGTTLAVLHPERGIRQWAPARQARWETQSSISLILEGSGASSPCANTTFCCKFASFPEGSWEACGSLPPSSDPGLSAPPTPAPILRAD


How the values were obtained:
[1] = molecular target: T1, cynomolgus monkey PVRIG on …; assay: FACS, FlpinCHO-cyno PVRIG cells
Method: After discarding the cell culture medium, the cells were rinsed with PBS and digested for 8-10 minutes by adding 1 mL Versene (Gibico, 15040-066). The Ham's F12 (Gibico, 21127-022) complete medium containing 10% FBS was then added to terminate the digestion and acquire cell suspension. After counting with a cell counter (Beckman Coulter, Vi-CELL), an appropriate amount of cell suspension was centrifuged at 350×g to remove the supernatant, washed twice with PBS, stained with Zombie violet (Biolegend, 423114) and incubated at room temperature for 20 minutes. After incubation, the cells were added with staining buffer (2% FBS+PBS) to stop staining, centrifuged at 350×g to remove the supernatant, washed twice and resuspended with staining buffer to a density of 2×10⁶ cells/mL. The cells were plated into a 96-well plate (50 μL of cell suspension per well) for further use. The antibodies were diluted from the highest concentration of 46 nM (two-fold concentration) with staining buffer by 3.3-fold serial dilution. The diluted antibodies were added to the well containing 50 μL of cell suspension. The plate was placed on a microplate shaker at 400 rpm for 1 minute to fully mix the antibodies and cells, and then incubated at 4° C. for 30 minutes. After the incubation, the cells were washed twice with staining buffer (200 μL per well) and centrifuged at 350×g for 5 minutes to discard the supernatant. The PE goat anti-human IgG Fc antibody (ebioscience, 12-4998-82) was diluted 250 times with staining buffer, added into the washed wells (100 μL per well), mixed well, and stained at 4° C. for 30 minutes. After staining, the cells were washed twice with staining buffer, finally resuspended with 200 μL staining buffer and analyzed by flow cytometry (BD, Canto II). […] An antibody binding curve was drawn with concentration of antibodies as the abscissa and the corresponding Mean Fluorescence Intensity (MFI) as the ordinate. The AUC value of the curve was calculated by using a Four Parameter Logistic Fit (GraphPadPrism9). […]

[2] = molecular target: T2, human PVRIG-mFc protein (Acro, …); assay: competition FACS; blocked: human PVRIG-mFc binding to CHO-K1-CD112 cells
Procedure, shortened: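 Antibody dilutions premixed with human PVRIG-mFc (working solution 1 μg/mL, four-fold concentration) for 30 min at 4° C, then incubated with CHO-K1-CD112 cells 30 min at 4° C. Bound PVRIG-mFc detected by PE anti-mouse IgG Fc flow cytometry; IC50 and AUC from four-parameter fit of MFI versus antibody concentration.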

[3] = molecular target: T3, human PVRIG-his (AcroBiosystems, Cat …); assay: competition ELISA on coated human PVRIG-his; blocked ligand human PVRL2-mFc
Procedure, shortened: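 Wells were coated with 0.5 μg/mL human PVRIG-his. Bound ligand was read by HRP/TMB absorbance, and IC50 came from a four-parameter logistic fit of OD against antibody concentration.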

EC50 (read off the curve) [1] [nM]	IC50 (read off the curve) [2] [nM]	IC50 (read off the curve) [3] [nM]	Binder
~1	~1	~0.8	SRF813-hIgG1 (antibody, V domains shown, human IgG1 format by its name) VH: QVQLVQSGAEVKKPGSSVKVSCKASGGTFSSAAISWVRQAPGQGLEWMGNIIPIVGIANYAQKFQGRVTITADESTSTAYMELSSLRSEDTAVYYCARDTGRGYTRHFWFDPWGQGTLVTVSS VL: DIQMTQSPSSLSASVGDRVTITCRASQSISSYLNWYQQKPGKAPKLLIYAASSLQSGVPSRFSGSGSGTDFTLTISSLQPEDFATYYCQQSDILYTFGGGTKVEIK
~0.5	~1	~0.9	PVRIG-A105 (VHH, tested as VHH-hinge-CH2-CH3 (human IgG1-Fc); not shown: human IgG1 hinge-CH2-CH3) VHH: EVQLVESGGGLVQAGGSLRLSCAASGRTFDRHTMTWFRQAPGKEREFVATASRIPGDTYYSHSVKGRFTISRDNAKNTVYLQLNNLKPEDTAVYYCAATSAYCSEVDCYEKGSWYDNWGQGIQVTVSS
